Source: patent US20040260068A1 (published 2004)
Where “and” joins values, the source holds several entries; their conditions need not be identical. Identical values can stand only once.

Tests used:
human IL-12 [1] = target: T1, human IL-12 (human, UniProt P29459 23-219; P29460 23-328); test: competition ELISA on coated human IL-12; competitor of biotinylated ChDD2
T1 construct: also called human IL-12 p70 heterodimer; IL-12 p75
T1 sequence (looked up) 1: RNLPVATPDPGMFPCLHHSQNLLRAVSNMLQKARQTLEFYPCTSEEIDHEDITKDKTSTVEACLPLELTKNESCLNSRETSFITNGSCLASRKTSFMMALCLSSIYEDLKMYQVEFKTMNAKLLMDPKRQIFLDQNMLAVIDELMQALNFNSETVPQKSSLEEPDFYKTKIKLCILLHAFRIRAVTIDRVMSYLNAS
T1 sequence (looked up) 2: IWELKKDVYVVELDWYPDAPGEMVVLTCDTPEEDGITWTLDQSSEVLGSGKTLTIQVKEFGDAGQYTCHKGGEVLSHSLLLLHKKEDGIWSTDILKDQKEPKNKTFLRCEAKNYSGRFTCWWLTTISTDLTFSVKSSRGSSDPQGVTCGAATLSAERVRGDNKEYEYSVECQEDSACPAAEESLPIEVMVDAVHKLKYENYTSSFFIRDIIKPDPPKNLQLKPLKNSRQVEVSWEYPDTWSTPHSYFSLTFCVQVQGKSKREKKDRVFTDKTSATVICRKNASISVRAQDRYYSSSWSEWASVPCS
Procedure: (§1) ELISA plates were incubated at room temperature for 2 hr. After washing the wells with Washing Buffer, 0.5 μg/ml HRP-conjugated streptavidin (Pierce) was added to each well. Color development was performed with TMB substrate (Kirkegaard & Perry Laboratories).

mouse IL-12 [2] = target: T2, mouse IL-12 (mouse, UniProt P43431 23-215; P43432 23-335); test: competition ELISA on coated mouse IL-12; competitor of biotinylated ChDD2
T2 sequence (looked up) 1: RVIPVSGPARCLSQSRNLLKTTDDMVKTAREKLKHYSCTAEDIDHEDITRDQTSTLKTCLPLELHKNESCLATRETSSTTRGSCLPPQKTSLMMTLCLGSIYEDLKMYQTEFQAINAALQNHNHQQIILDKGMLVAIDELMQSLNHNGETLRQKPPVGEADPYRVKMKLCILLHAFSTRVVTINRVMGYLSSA
T2 sequence (looked up) 2: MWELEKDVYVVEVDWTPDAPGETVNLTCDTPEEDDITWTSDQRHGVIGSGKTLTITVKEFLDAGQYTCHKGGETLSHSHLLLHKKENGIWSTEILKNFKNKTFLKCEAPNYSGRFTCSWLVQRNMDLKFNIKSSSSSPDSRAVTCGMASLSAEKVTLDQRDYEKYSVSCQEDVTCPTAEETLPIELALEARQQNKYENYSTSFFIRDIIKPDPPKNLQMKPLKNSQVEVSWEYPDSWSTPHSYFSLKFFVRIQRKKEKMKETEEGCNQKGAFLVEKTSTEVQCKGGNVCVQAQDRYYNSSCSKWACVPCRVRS
Procedure: as §1, with “MaxiSorp plates (Nalge Nunc, Rochester N.Y.) were coated with 0.1 μg/ml human or mouse IL-12. […] ELISA” for “ELISA”

human IL-12 [3] = target: T1, human IL-12; test: competition ELISA on coated human IL-12
Procedure: as §1

bovine albumin = target: T3, bovine albumin (bovine, UniProt P02769 25-607); test: ELISA on coated protein
T3 construct: Control antigen
T3 sequence (P02769 25-607 limits assumed): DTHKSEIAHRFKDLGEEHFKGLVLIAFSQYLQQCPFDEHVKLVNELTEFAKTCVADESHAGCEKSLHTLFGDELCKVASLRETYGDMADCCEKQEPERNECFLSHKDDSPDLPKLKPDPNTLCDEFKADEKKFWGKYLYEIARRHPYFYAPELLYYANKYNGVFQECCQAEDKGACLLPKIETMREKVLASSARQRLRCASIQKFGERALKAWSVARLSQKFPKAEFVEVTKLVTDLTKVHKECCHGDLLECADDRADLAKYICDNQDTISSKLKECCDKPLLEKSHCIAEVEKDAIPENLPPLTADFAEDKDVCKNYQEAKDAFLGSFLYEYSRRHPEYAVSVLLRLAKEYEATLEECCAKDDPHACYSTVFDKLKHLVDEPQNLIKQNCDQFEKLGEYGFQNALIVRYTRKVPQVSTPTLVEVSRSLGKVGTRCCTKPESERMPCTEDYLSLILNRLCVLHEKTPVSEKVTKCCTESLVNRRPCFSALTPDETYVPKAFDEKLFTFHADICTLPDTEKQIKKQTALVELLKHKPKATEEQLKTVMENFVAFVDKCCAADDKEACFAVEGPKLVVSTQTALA
Procedure: (§2) For binding to various proteins, ELISA plates were coated with chicken lysozyme (Sigma), human globin (Sigma), bovine albumin (Sigma), and concanavalin A (Pharmacia) as well as human and mouse IL-12 (R&D) at 0.1 μg/ml in 0.2 M sodium carbonate buffer (pH 9.4) and blocked with SuperBlock buffer (Pierce).

concanavalin A = target: T4, concanavalin A (UniProt P02866 30-281); test: ELISA on coated protein
T4 construct: Control antigen
Procedure: as §2

chicken lysozyme = target: T5, chicken lysozyme (chicken, UniProt P00698 19-147); test: ELISA on coated protein
T5 construct: Control antigen; also called hen egg lysozyme
T5 sequence (P00698 19-147): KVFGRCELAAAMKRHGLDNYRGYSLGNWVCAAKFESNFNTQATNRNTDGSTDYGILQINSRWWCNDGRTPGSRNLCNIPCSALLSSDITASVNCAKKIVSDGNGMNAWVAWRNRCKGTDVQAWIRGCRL
Procedure: as §2

human IL-12 [4] = target: T1, human IL-12; test: competition ELISA on coated human IL-12; competitor of biotinylated humanized B1
Procedure: (§3) MaxiSorp plates were coated with 100 μl of 0.1 μg/ml human or mouse IL-12 (R&D) and blocked with Superblock blocking buffer. […] As a background control, 100 μl of ELISA Buffer was used. ELISA plates were incubated at room temperature for 2 hr. After washing the wells with Washing Buffer (PBS containing 0.1 % Tween 20), 100 μl of 1 μg/ml HRP-conjugated streptavidin (Pierce) in ELISA buffer was added to each well. ELISA plates were incubated at room temperature for 30 min and washed with Washing Buffer. For color development, 100 μI/well of ABTS substrate was added. Color development was stopped by adding 100 μl/well of 2% oxalic acid. Absorbance was read at 415 nm.

mouse IL-12 [5] = target: T2, mouse IL-12; test: competition ELISA on coated mouse IL-12; competitor of biotinylated humanized B1
Procedure: as §3

mouse IL-12 [6] = target: T2, mouse IL-12; test: competition ELISA on coated mouse IL-12
Procedure: as §3

mouse IL-12 [7] = target: T2, mouse IL-12; test: competitive binding assay (competition ELISA)
Procedure: as §3

B1: humanized DD2 IgG1/λ monoclonal antibody (antibody, V domains shown)
VH: EVQLVESGGGLVQPGGSLRLSCAASGFDFSNYQLQWVRQAPGKGLEWVGGIGSSGSSTYYGAAVKGRATISRDNAKNSVYLQMNSLRAEDTAVYYCTRGVSPYSCWYAGRTSYTCHAYTAGSIDAWGQGTLVTVSS
VL: SSELTQDPAVSVALGQTVRITCPGGGIYAGRYYGYGWFQQKPGQAPVTVIYSNDKRPSDIPSRFSGSASGSTASLTITGAQAEDEADYYCGSHDSNVGVFGGGTKLTVL
notes: also called HuDD2; wild-type HuDD2
Human IL-12 [1]
  IC50: 4.2 µg/mL and 3.5 µg/mL
Mouse IL-12 [2]
  IC50: 2.4 µg/mL

B2: HuDD2 VH A67F mutant (antibody, IgG1, name in Kabat numbering, V domains shown)
VH: EVQLVESGGGLVQPGGSLRLSCAASGFDFSNYQLQWVRQAPGKGLEWVGGIGSSGSSTYYGAAVKGRFTISRDNAKNSVYLQMNSLRAEDTAVYYCTRGVSPYSCWYAGRTSYTCHAYTAGSIDAWGQGTLVTVSS
VL: SSELTQDPAVSVALGQTVRITCPGGGIYAGRYYGYGWFQQKPGQAPVTVIYSNDKRPSDIPSRFSGSASGSTASLTITGAQAEDEADYYCGSHDSNVGVFGGGTKLTVL
notes: IgG1/λ as HuDD2
Human IL-12 [1]
  IC50: 2.1 µg/mL

B3: HuDD2 VH V78L mutant (antibody, IgG1, name in Kabat numbering, V domains shown)
VH: EVQLVESGGGLVQPGGSLRLSCAASGFDFSNYQLQWVRQAPGKGLEWVGGIGSSGSSTYYGAAVKGRATISRDNAKNSLYLQMNSLRAEDTAVYYCTRGVSPYSCWYAGRTSYTCHAYTAGSIDAWGQGTLVTVSS
VL: SSELTQDPAVSVALGQTVRITCPGGGIYAGRYYGYGWFQQKPGQAPVTVIYSNDKRPSDIPSRFSGSASGSTASLTITGAQAEDEADYYCGSHDSNVGVFGGGTKLTVL
notes: IgG1/λ as HuDD2; H78 (Kabat) is the position named as the one tested; also called V79L
Human IL-12 [1]
  IC50: 7 µg/mL
Human IL-12 [3]
  fold reduction of binding affinity against wild-type HuDD2: 2 fold

B4: HuDD2 Vλ A66S mutant (antibody, IgG1, V domains shown)
VH: EVQLVESGGGLVQPGGSLRLSCAASGFDFSNYQLQWVRQAPGKGLEWVGGIGSSGSSTYYGAAVKGRATISRDNAKNSVYLQMNSLRAEDTAVYYCTRGVSPYSCWYAGRTSYTCHAYTAGSIDAWGQGTLVTVSS
VL: SSELTQDPAVSVALGQTVRITCPGGGIYAGRYYGYGWFQQKPGQAPVTVIYSNDKRPSDIPSRFSGSSSGSTASLTITGAQAEDEADYYCGSHDSNVGVFGGGTKLTVL
notes: IgG1/λ as HuDD2; Kabat numbering
Human IL-12 [1]
  IC50: 3.4 µg/mL

B5: HuDD2 Vλ S69N mutant (antibody, IgG1, V domains shown)
VH: EVQLVESGGGLVQPGGSLRLSCAASGFDFSNYQLQWVRQAPGKGLEWVGGIGSSGSSTYYGAAVKGRATISRDNAKNSVYLQMNSLRAEDTAVYYCTRGVSPYSCWYAGRTSYTCHAYTAGSIDAWGQGTLVTVSS
VL: SSELTQDPAVSVALGQTVRITCPGGGIYAGRYYGYGWFQQKPGQAPVTVIYSNDKRPSDIPSRFSGSASGNTASLTITGAQAEDEADYYCGSHDSNVGVFGGGTKLTVL
notes: as for B4
Human IL-12 [1]
  IC50: 4.3 µg/mL

B6: HuDD2 VH T93A mutant (antibody, IgG1, name in Kabat numbering, V domains shown)
VH: EVQLVESGGGLVQPGGSLRLSCAASGFDFSNYQLQWVRQAPGKGLEWVGGIGSSGSSTYYGAAVKGRATISRDNAKNSVYLQMNSLRAEDTAVYYCARGVSPYSCWYAGRTSYTCHAYTAGSIDAWGQGTLVTVSS
VL: SSELTQDPAVSVALGQTVRITCPGGGIYAGRYYGYGWFQQKPGQAPVTVIYSNDKRPSDIPSRFSGSASGSTASLTITGAQAEDEADYYCGSHDSNVGVFGGGTKLTVL
notes: as for B4
Human IL-12 [1]
  IC50: 3.3 µg/mL

B7: HuDD2 Vλ T46L mutant (antibody, IgG1, V domains shown)
VH: EVQLVESGGGLVQPGGSLRLSCAASGFDFSNYQLQWVRQAPGKGLEWVGGIGSSGSSTYYGAAVKGRATISRDNAKNSVYLQMNSLRAEDTAVYYCTRGVSPYSCWYAGRTSYTCHAYTAGSIDAWGQGTLVTVSS
VL: SSELTQDPAVSVALGQTVRITCPGGGIYAGRYYGYGWFQQKPGQAPVLVIYSNDKRPSDIPSRFSGSASGSTASLTITGAQAEDEADYYCGSHDSNVGVFGGGTKLTVL
notes: as for B4
Human IL-12 [1]
  IC50: 16.1 µg/mL
Human IL-12 [3]
  fold reduction of binding affinity against wild-type HuDD2: 4.6 fold

B8: chimeric B1 IgG1/λ antibody (chicken-human chimeric anti-IL-12 antibody B1) (antibody, V domains shown)
VH: AVTLDESGGGLQTPGGALSLVCKASGFTFSSYSMLWVRQAPGKGLEYVAEITNTGRTRRYGAAVKGRATISRDNGQSTVRLQLNNLRAEDTGTYYCARSSVYSCSYGWCAGNINAWGHGTEVIVSS
VL: ALTQPASVSANLGGTVKITCSGGYSGYYGWYQQKSPGSAPVTVIYDNTRRPSDIPSRFSGSKSGSTATLTITGVQADDEAVYFCGTWDSSRVGIFGAGTTLTVL
notes: made in Sp2/0; also called ChB1
Bovine albumin
  binding result: no binding (tested: 0.01 µg/ml antibody)
Concanavalin A
  binding result: no binding (tested: 0.01 µg/ml antibody)
Chicken lysozyme
  binding result: no binding (tested: 0.01 µg/ml antibody)
Human IL-12 [4]
  IC50: 8.3 µg/mL
Mouse IL-12 [5]
  IC50: 13 µg/mL

B9: chicken-human chimeric anti-IL-12 antibody DD2 (antibody, V domains shown)
VH: AVTLDESGGGLQTPGGGLSLVCKASGFDFSNYQLQWVRQAPGKGLEWVGGIGSSGSSTYYGAAVKGRATISRDNGQSTVRLQLNNLRAEDTGTYYCTRGVSPYSCWYAGRTSYTCHAYTAGSIDAWGHGTEVIVSS
VL: ALTQPASVSANPGETVKITCPGGGIYAGRYYGYGWFQQKSPGSAPVTVIYSNDKRPSDIPSRFSGSASGSTATLTITGVQADDEAVYFCGSHDSNVGVFGAGTTLTVL
notes: made in Sp2/0; also called ChDD2; chimeric DD2
Human IL-12 [1]
  IC50: 4 µg/mL
Mouse IL-12 [2]
  IC50: 2.4 µg/mL

B10: humanized B1 IgG1/λ monoclonal antibody (antibody, V domains shown)
VH: EVQLVESGGGLVQPGGSLRLSCAASGFTFSSYSMLWVRQAPGKGLEYVAEITNTGRTRRYGAAVKGRATISRDNAKNTVYLQMNSLRAEDTAVYYCARSSVYSCSYGWCAGNINAWGQGTLVTVSS
VL: SSELTQPPSVSVALGQTVRITCSGGYSGYYGWYQQKPGQAPVTVIYDNTRRPSDIPSRFSGSKSGSTATLTITGVQAEDEADYYCGTWDSSRVGIFGGGTKLTVL
notes: made in Sp2/0; also called HuB1
Mouse IL-12 [6]
  fold decrease in relative binding against chimeric B1 (fold): ~2.1 fold
Bovine albumin
  binding result: no binding (tested: 0.01 µg/ml antibody)
Concanavalin A
  binding result: no binding (tested: 0.01 µg/ml antibody)
Chicken lysozyme
  binding result: no binding (tested: 0.01 µg/ml antibody)
Human IL-12 [4]
  IC50: 5.8 µg/mL
Mouse IL-12 [7]
  fold better affinity than chimeric B1: ~2 fold
Human IL-12 [3]
  fold better binding than chimeric B1: ~1.4 fold
Mouse IL-12 [5]
  IC50: 6.2 µg/mL
